Experimental data: the supplement of paper PMC9112550, “Optimization of the antimicrobial peptide Bac7 by deep mutational scanning” (BMC Biology, 2022)

Tested on: Escherichia coli TOP10
Experiment: shrunken log2 fold change of peptide-encoding DNA abundance (4.5 h post-induction vs induction); higher = less antimicrobial activity (less host growth inhibition)
Settings: time post-induction: 4.5 h; library: site-saturation at positions 5, 18, 19, 20
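Note: peptides expressed intracellularly from a pBAD plasmid library in pooled LB shake-flask culture, induced with 0.3% L-arabinose, DNA abundance read by NGS, three biological replicates, DESeq2 with apeglm shrinkage.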

| Sequence | shrunken log2 fold change |
| --- | --- |
| RRIRPRPPRLPRPRPRPNKKPRP | -0.238 |
| RRIRMRPPRLPRPRPRPVMVPRP | 0.0724 |
| RRIRARPPRLPRPRPRPEYAPRP | 0.672 |
| RRIRYRPPRLPRPRPRPALEPRP | -0.486 |
| RRIRFRPPRLPRPRPRPLPMPRP | 0.142 |
| RRIRNRPPRLPRPRPRPLYKPRP | -0.561 |
| RRIRVRPPRLPRPRPRPCVCPRP | -0.0618 |
| RRIRYRPPRLPRPRPRPIPNPRP | -0.336 |
| RRIRPRPPRLPRPRPRPHHCPRP | -0.257 |
| RRIRARPPRLPRPRPRPAHWPRP | 0.535 |
| RRIRCRPPRLPRPRPRPYQGPRP | 0.0299 |
| RRIRKRPPRLPRPRPRPPVAPRP | 0.974 |
| RRIRQRPPRLPRPRPRPMQSPRP | 0.108 |
| RRIRTRPPRLPRPRPRPEFWPRP | 0.445 |
| RRIRFRPPRLPRPRPRPYQQPRP | 0.00163 |
| RRIRQRPPRLPRPRPRPEFYPRP | -0.0478 |
| RRIRMRPPRLPRPRPRPLCWPRP | 1.15 |
| RRIRMRPPRLPRPRPRPRHCPRP | 0.28 |
| RRIRGRPPRLPRPRPRPRQYPRP | -0.0954 |
| RRIRVRPPRLPRPRPRPQKWPRP | 0.202 |
| RRIRGRPPRLPRPRPRPFCYPRP | 0.362 |
| RRIRIRPPRLPRPRPRPYGIPRP | -0.329 |
| RRIRDRPPRLPRPRPRPPRTPRP | 0.389 |
| RRIRTRPPRLPRPRPRPLEFPRP | -0.0903 |
| RRIRSRPPRLPRPRPRPWDFPRP | -0.224 |

| Sequence | shrunken log2 fold change |
| --- | --- |
| RRIRMRPPRLPRPRPRPIAWPRP | 0.201 |
| RRIRMRPPRLPRPRPRPLYHPRP | -0.0416 |
| RRIRRRPPRLPRPRPRPPWGPRP | 0.0337 |
| RRIRQRPPRLPRPRPRPHCIPRP | 0.0493 |
| RRIRWRPPRLPRPRPRPCRHPRP | 0.0955 |
| RRIRTRPPRLPRPRPRPYCAPRP | -0.732 |
| RRIRDRPPRLPRPRPRPCSIPRP | -0.0309 |
| RRIRDRPPRLPRPRPRPYNWPRP | -0.281 |
| RRIRLRPPRLPRPRPRPAFNPRP | -0.189 |
| RRIRPRPPRLPRPRPRPHTRPRP | 0.171 |
| RRIRIRPPRLPRPRPRPKWQPRP | -0.114 |
| RRIRTRPPRLPRPRPRPYFEPRP | -0.223 |
| RRIRMRPPRLPRPRPRPVPVPRP | 0.364 |
| RRIRGRPPRLPRPRPRPVNDPRP | 0.368 |
| RRIRYRPPRLPRPRPRPPIEPRP | -0.154 |
| RRIRIRPPRLPRPRPRPNPGPRP | -0.209 |
| RRIRNRPPRLPRPRPRPHIQPRP | 2.34 |
| RRIRVRPPRLPRPRPRPPMEPRP | -0.172 |
| RRIRNRPPRLPRPRPRPAPIPRP | 0.169 |
| RRIRQRPPRLPRPRPRPNDWPRP | 0.142 |
| RRIRYRPPRLPRPRPRPPPYPRP | -0.0871 |
| RRIRGRPPRLPRPRPRPKEEPRP | 1.58 |
| RRIRARPPRLPRPRPRPTRHPRP | 0.615 |
| RRIRGRPPRLPRPRPRPMRNPRP | 1.09 |
| RRIRCRPPRLPRPRPRPIFSPRP | -0.0342 |

| Sequence | shrunken log2 fold change |
| --- | --- |
| RRIRIRPPRLPRPRPRPDYRPRP | 0.0581 |
| RRIRHRPPRLPRPRPRPLWLPRP | 0.0573 |
| RRIRWRPPRLPRPRPRPRVHPRP | 0.341 |
| RRIRCRPPRLPRPRPRPFGAPRP | 0.102 |
| RRIRGRPPRLPRPRPRPYAHPRP | 0.023 |
| RRIRIRPPRLPRPRPRPLWYPRP | -0.551 |
| RRIRGRPPRLPRPRPRPPNLPRP | 0.463 |
| RRIRSRPPRLPRPRPRPGCGPRP | 0.62 |
| RRIRMRPPRLPRPRPRPQHVPRP | 0.0365 |
| RRIRDRPPRLPRPRPRPNECPRP | 0.0169 |
| RRIRCRPPRLPRPRPRPMIIPRP | -0.18 |
| RRIRDRPPRLPRPRPRPQINPRP | -0.0439 |
| RRIRMRPPRLPRPRPRPYDLPRP | -0.242 |
| RRIRLRPPRLPRPRPRPPHQPRP | 0.168 |
| RRIRKRPPRLPRPRPRPYAAPRP | -0.102 |
| RRIRGRPPRLPRPRPRPGDMPRP | 0.511 |
| RRIRQRPPRLPRPRPRPVGLPRP | 0.35 |
| RRIRVRPPRLPRPRPRPCKHPRP | -0.483 |
| RRIRHRPPRLPRPRPRPHCTPRP | -0.0731 |
| RRIRTRPPRLPRPRPRPASQPRP | 0.0336 |
| RRIRGRPPRLPRPRPRPEFQPRP | 0.226 |
| RRIRLRPPRLPRPRPRPDGTPRP | 0.245 |
| RRIRTRPPRLPRPRPRPEGWPRP | 0.688 |
| RRIRGRPPRLPRPRPRPTCLPRP | 0.576 |
| RRIRVRPPRLPRPRPRPLWRPRP | 0.293 |

| Sequence | shrunken log2 fold change |
| --- | --- |
| RRIRHRPPRLPRPRPRPAPDPRP | -0.0192 |
| RRIRARPPRLPRPRPRPQRQPRP | 0.24 |
| RRIRDRPPRLPRPRPRPIKVPRP | 0.00881 |
| RRIRDRPPRLPRPRPRPTLPPRP | -0.027 |
| RRIRTRPPRLPRPRPRPLGAPRP | 0.0945 |
| RRIRWRPPRLPRPRPRPANDPRP | -0.0438 |
| RRIRPRPPRLPRPRPRPPDHPRP | 0.182 |
| RRIRGRPPRLPRPRPRPKVMPRP | 0.696 |
| RRIRLRPPRLPRPRPRPAHLPRP | 0.343 |
| RRIRVRPPRLPRPRPRPQWWPRP | 0.0756 |
| RRIRYRPPRLPRPRPRPCQQPRP | -0.163 |
| RRIRMRPPRLPRPRPRPDGEPRP | 0.857 |
| RRIRQRPPRLPRPRPRPPVIPRP | -0.498 |
| RRIRHRPPRLPRPRPRPSSGPRP | -0.427 |
| RRIRSRPPRLPRPRPRPWTLPRP | -0.0934 |
| RRIRARPPRLPRPRPRPIEMPRP | 0.563 |
| RRIRFRPPRLPRPRPRPCEKPRP | 0.00738 |
| RRIRTRPPRLPRPRPRPSTQPRP | -0.0187 |
| RRIRDRPPRLPRPRPRPKHGPRP | 0.0517 |
| RRIRERPPRLPRPRPRPDMMPRP | 0.0556 |
| RRIRGRPPRLPRPRPRPFENPRP | 0.0511 |
| RRIRCRPPRLPRPRPRPTPGPRP | 0.589 |
| RRIRARPPRLPRPRPRPYFMPRP | -0.62 |
| RRIRPRPPRLPRPRPRPFQCPRP | -0.0376 |
| RRIRCRPPRLPRPRPRPRSWPRP | 0.417 |

| Sequence | shrunken log2 fold change |
| --- | --- |
| RRIRIRPPRLPRPRPRPFTMPRP | -0.79 |
| RRIRQRPPRLPRPRPRPIAQPRP | 0.0718 |
| RRIRGRPPRLPRPRPRPPQPPRP | 1.03 |
| RRIRQRPPRLPRPRPRPRKEPRP | -0.0194 |
| RRIRARPPRLPRPRPRPNPEPRP | 0.0539 |
| RRIRKRPPRLPRPRPRPPIHPRP | 0.327 |
| RRIRARPPRLPRPRPRPCGQPRP | 0.25 |
| RRIRHRPPRLPRPRPRPSYKPRP | -0.0553 |
| RRIRVRPPRLPRPRPRPLEPPRP | 0.236 |
| RRIRERPPRLPRPRPRPWFFPRP | -0.358 |
| RRIRPRPPRLPRPRPRPPICPRP | -0.474 |
| RRIRLRPPRLPRPRPRPHEFPRP | -0.0833 |
| RRIRERPPRLPRPRPRPTAEPRP | 0.265 |
| RRIRARPPRLPRPRPRPQGPPRP | -0.0931 |
| RRIRARPPRLPRPRPRPIPGPRP | 0.0653 |
| RRIRGRPPRLPRPRPRPISQPRP | 0.135 |
| RRIRERPPRLPRPRPRPRNEPRP | -0.473 |
| RRIRPRPPRLPRPRPRPGRSPRP | 0.0919 |
| RRIRYRPPRLPRPRPRPKFYPRP | 0.0354 |
| RRIRSRPPRLPRPRPRPIRKPRP | 0.143 |
| RRIRKRPPRLPRPRPRPPQYPRP | 0.277 |
| RRIRDRPPRLPRPRPRPNFQPRP | 0.151 |
| RRIRARPPRLPRPRPRPTYKPRP | -0.23 |
| RRIRNRPPRLPRPRPRPTDRPRP | 0.0372 |
| RRIRQRPPRLPRPRPRPRLAPRP | 0.594 |

| Sequence | shrunken log2 fold change |
| --- | --- |
| RRIRMRPPRLPRPRPRPMDIPRP | 0.468 |
| RRIRYRPPRLPRPRPRPHSMPRP | -0.0542 |
| RRIRVRPPRLPRPRPRPYQLPRP | -0.228 |
| RRIRYRPPRLPRPRPRPPMGPRP | -0.239 |
| RRIRQRPPRLPRPRPRPKDHPRP | -0.185 |
| RRIRGRPPRLPRPRPRPGPFPRP | 0.218 |
| RRIRHRPPRLPRPRPRPSVGPRP | 0.319 |
| RRIRFRPPRLPRPRPRPYRKPRP | -0.186 |
| RRIRDRPPRLPRPRPRPVMKPRP | -0.0716 |
| RRIRIRPPRLPRPRPRPCENPRP | -0.00127 |
| RRIRHRPPRLPRPRPRPRVEPRP | 0.0973 |
| RRIRQRPPRLPRPRPRPWFQPRP | -0.0867 |
| RRIRTRPPRLPRPRPRPSECPRP | -0.166 |
| RRIRCRPPRLPRPRPRPAMFPRP | -0.0946 |
| RRIRARPPRLPRPRPRPKWQPRP | 0.0511 |
| RRIRFRPPRLPRPRPRPTEVPRP | -0.0247 |
| RRIRARPPRLPRPRPRPVEAPRP | 0.365 |
| RRIRLRPPRLPRPRPRPPEEPRP | 0.0505 |
| RRIRERPPRLPRPRPRPFKDPRP | -0.0062 |
| RRIRLRPPRLPRPRPRPWWQPRP | -0.179 |
| RRIRSRPPRLPRPRPRPWQIPRP | 0.0843 |
| RRIRVRPPRLPRPRPRPARDPRP | 0.355 |
| RRIRPRPPRLPRPRPRPYRTPRP | -0.111 |
| RRIRDRPPRLPRPRPRPWAEPRP | 0.302 |
| RRIRRRPPRLPRPRPRPEKKPRP | 0.0396 |
